Test results published in the supplement of paper PMC9112550, “Optimization of the antimicrobial peptide Bac7 by deep mutational scanning” (BMC Biology, 2022).

What follows are sequences tested on Escherichia coli TOP10 (assay: shrunken log2 fold change of peptide-encoding DNA abundance (4.5 h post-induction vs induction); higher = less antimicrobial activity (less host growth inhibition)). Conditions: time post-induction: 4.5 h; library: site-saturation at positions 5, 18, 19, 20.
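Further: peptides expressed intracellularly from a pBAD plasmid library in pooled LB shake-flask culture, induced with 0.3% L-arabinose, DNA abundance read by NGS, three biological replicates, DESeq2 with apeglm shrinkage.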

| Sequence | shrunken log2 fold change |
| --- | --- |
| RRIRPRPPRLPRPRPRPAQDPRP | 0.0233 |
| RRIRPRPPRLPRPRPRPAQIPRP | 0.175 |
| RRIRPRPPRLPRPRPRPARNPRP | 0.328 |
| RRIRPRPPRLPRPRPRPARQPRP | 0.253 |
| RRIRPRPPRLPRPRPRPASDPRP | 0.261 |
| RRIRPRPPRLPRPRPRPASMPRP | -0.295 |
| RRIRPRPPRLPRPRPRPAVCPRP | 0.245 |
| RRIRPRPPRLPRPRPRPAVLPRP | 0.163 |
| RRIRPRPPRLPRPRPRPAWFPRP | 0.117 |
| RRIRPRPPRLPRPRPRPCANPRP | 0.0366 |
| RRIRPRPPRLPRPRPRPCCSPRP | -0.556 |
| RRIRPRPPRLPRPRPRPCCTPRP | -0.12 |
| RRIRPRPPRLPRPRPRPCDKPRP | 0.0695 |
| RRIRPRPPRLPRPRPRPCEFPRP | -0.0795 |
| RRIRPRPPRLPRPRPRPCGAPRP | 0.206 |
| RRIRPRPPRLPRPRPRPCGVPRP | 0.205 |
| RRIRPRPPRLPRPRPRPCGWPRP | 0.403 |
| RRIRPRPPRLPRPRPRPCHKPRP | -0.0956 |
| RRIRPRPPRLPRPRPRPCKLPRP | -0.609 |
| RRIRPRPPRLPRPRPRPCKSPRP | -0.0854 |
| RRIRPRPPRLPRPRPRPCKVPRP | -0.348 |
| RRIRPRPPRLPRPRPRPCLPPRP | 0.0296 |

| Sequence | shrunken log2 fold change |
| --- | --- |
| RRIRPRPPRLPRPRPRPCLVPRP | -0.179 |
| RRIRPRPPRLPRPRPRPCMAPRP | -0.151 |
| RRIRPRPPRLPRPRPRPCMNPRP | -0.184 |
| RRIRPRPPRLPRPRPRPCMTPRP | -0.106 |
| RRIRPRPPRLPRPRPRPCNWPRP | -0.0706 |
| RRIRPRPPRLPRPRPRPCPRPRP | 0.0438 |
| RRIRPRPPRLPRPRPRPCPWPRP | 0.889 |
| RRIRPRPPRLPRPRPRPCRDPRP | 1.11 |
| RRIRPRPPRLPRPRPRPCRQPRP | 0.111 |
| RRIRPRPPRLPRPRPRPCSPPRP | 0.0563 |
| RRIRPRPPRLPRPRPRPCTLPRP | -0.029 |
| RRIRPRPPRLPRPRPRPCTWPRP | 0.025 |
| RRIRPRPPRLPRPRPRPCVFPRP | -0.164 |
| RRIRPRPPRLPRPRPRPDAYPRP | -0.334 |
| RRIRPRPPRLPRPRPRPDFTPRP | -0.411 |
| RRIRPRPPRLPRPRPRPDHEPRP | 0.0217 |
| RRIRPRPPRLPRPRPRPDHLPRP | -0.172 |
| RRIRPRPPRLPRPRPRPDISPRP | 0.0683 |
| RRIRPRPPRLPRPRPRPDKEPRP | -0.0375 |
| RRIRPRPPRLPRPRPRPDLMPRP | 0.303 |
| RRIRPRPPRLPRPRPRPDLTPRP | 0.168 |
| RRIRPRPPRLPRPRPRPDNRPRP | 0.0191 |

| Sequence | shrunken log2 fold change |
| --- | --- |
| RRIRPRPPRLPRPRPRPDPSPRP | 0.265 |
| RRIRPRPPRLPRPRPRPDQWPRP | -0.0215 |
| RRIRPRPPRLPRPRPRPDRGPRP | 0.0265 |
| RRIRPRPPRLPRPRPRPDRYPRP | -0.0207 |
| RRIRPRPPRLPRPRPRPDSKPRP | -0.238 |
| RRIRPRPPRLPRPRPRPDSVPRP | 0.195 |
| RRIRPRPPRLPRPRPRPDTRPRP | 0.0199 |
| RRIRPRPPRLPRPRPRPDTYPRP | -0.623 |
| RRIRPRPPRLPRPRPRPDVGPRP | 0.181 |
| RRIRPRPPRLPRPRPRPDVKPRP | -0.137 |
| RRIRPRPPRLPRPRPRPDVTPRP | -0.399 |
| RRIRPRPPRLPRPRPRPDWDPRP | 0.00947 |
| RRIRPRPPRLPRPRPRPDYDPRP | -0.252 |
| RRIRPRPPRLPRPRPRPDYEPRP | -0.136 |
| RRIRPRPPRLPRPRPRPEAAPRP | 1.13 |
| RRIRPRPPRLPRPRPRPEARPRP | 0.374 |
| RRIRPRPPRLPRPRPRPEATPRP | 0.33 |
| RRIRPRPPRLPRPRPRPEAVPRP | 0.216 |
| RRIRPRPPRLPRPRPRPEAYPRP | 0.00183 |
| RRIRPRPPRLPRPRPRPECEPRP | 0.291 |
| RRIRPRPPRLPRPRPRPECLPRP | 0.0299 |
| RRIRPRPPRLPRPRPRPECMPRP | 0.212 |

| Sequence | shrunken log2 fold change |
| --- | --- |
| RRIRPRPPRLPRPRPRPECWPRP | 0.903 |
| RRIRPRPPRLPRPRPRPECYPRP | 0.044 |
| RRIRPRPPRLPRPRPRPEDAPRP | 0.0442 |
| RRIRPRPPRLPRPRPRPEDYPRP | -0.0172 |
| RRIRPRPPRLPRPRPRPEECPRP | -0.105 |
| RRIRPRPPRLPRPRPRPEELPRP | 0.0725 |
| RRIRPRPPRLPRPRPRPEFLPRP | -0.101 |
| RRIRPRPPRLPRPRPRPEFRPRP | -0.00133 |
| RRIRPRPPRLPRPRPRPEGGPRP | 0.329 |
| RRIRPRPPRLPRPRPRPEHFPRP | 0.134 |
| RRIRPRPPRLPRPRPRPEIGPRP | 0.0772 |
| RRIRPRPPRLPRPRPRPELMPRP | -0.109 |
| RRIRPRPPRLPRPRPRPEMQPRP | 1.05 |
| RRIRPRPPRLPRPRPRPENVPRP | -0.2 |
| RRIRPRPPRLPRPRPRPEPPPRP | 0.474 |
| RRIRPRPPRLPRPRPRPEPWPRP | 0.232 |
| RRIRPRPPRLPRPRPRPEQCPRP | -0.0149 |
| RRIRPRPPRLPRPRPRPEQLPRP | 0.0838 |
| RRIRPRPPRLPRPRPRPEQYPRP | -0.226 |
| RRIRPRPPRLPRPRPRPERTPRP | 0.291 |
| RRIRPRPPRLPRPRPRPERYPRP | 0.378 |
| RRIRPRPPRLPRPRPRPESEPRP | -0.0127 |

| Sequence | shrunken log2 fold change |
| --- | --- |
| RRIRPRPPRLPRPRPRPETDPRP | 0.229 |
| RRIRPRPPRLPRPRPRPEVFPRP | 0.0976 |
| RRIRPRPPRLPRPRPRPEWGPRP | 0.42 |
| RRIRPRPPRLPRPRPRPEYCPRP | -0.146 |
| RRIRPRPPRLPRPRPRPFARPRP | 0.206 |
| RRIRPRPPRLPRPRPRPFASPRP | 0.132 |
| RRIRPRPPRLPRPRPRPFCKPRP | -0.511 |
| RRIRPRPPRLPRPRPRPFDKPRP | -0.0386 |
| RRIRPRPPRLPRPRPRPFDMPRP | 0.08 |
| RRIRPRPPRLPRPRPRPFDWPRP | 0.171 |
| RRIRPRPPRLPRPRPRPFFSPRP | -0.0993 |
| RRIRPRPPRLPRPRPRPFGDPRP | -0.0184 |
| RRIRPRPPRLPRPRPRPFGMPRP | -0.749 |
| RRIRPRPPRLPRPRPRPFHNPRP | -0.541 |
| RRIRPRPPRLPRPRPRPFHYPRP | -1.27 |
| RRIRPRPPRLPRPRPRPFIFPRP | 0.29 |
| RRIRPRPPRLPRPRPRPFIHPRP | -0.224 |
| RRIRPRPPRLPRPRPRPFKWPRP | 0.0103 |
| RRIRPRPPRLPRPRPRPFMNPRP | -0.198 |
| RRIRPRPPRLPRPRPRPFMVPRP | -0.478 |
| RRIRPRPPRLPRPRPRPFNFPRP | -0.155 |
